Changes are numbered by the printed parent chain. Read-outs that look alike come from different tables or passages of the source.
Assays:
hOX40-muFc [1] = target: T1, hOX40-muFc (human; mouse, UniProt P43489 29-216); experiment: ELISA, hOX40-muFc coated at 2 µg/ml, goat anti-human IgG-HRP; column C of the drawn 4-P fit table y=(A-D)/(1+(x/C)^B)+D; the axis prints no unit, ng/ml is from paragraph 210
T1 construct: range 1-216; Expressed in HEK293, purified on Protein A; also called recombinant human OX40; not shown: mouse IgG1-Fc (muFc) domain, residue 98 to residue 324 of P01868
T1 sequence (looked up): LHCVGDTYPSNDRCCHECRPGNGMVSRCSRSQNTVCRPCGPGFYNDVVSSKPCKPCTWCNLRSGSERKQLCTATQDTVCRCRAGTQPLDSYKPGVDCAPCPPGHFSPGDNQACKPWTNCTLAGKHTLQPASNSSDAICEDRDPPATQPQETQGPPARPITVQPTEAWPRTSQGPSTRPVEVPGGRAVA
Protocol: (§1) hOX40-muFc was diluted to 2 μg/ml with coating buffer (50 mM Na₂CO₃, NaHCO₃ pH 9.6), 100 μL/well, 4° C. overnight. After washing, blocking was performed using 3% BSA-PBS for 1 h at 37° C. The anti-hOX40 antibodies were diluted respectively from 2000 ng/ml and was diluted 2-fold in a total of 11 concentrations, with the diluent (1% BSA-PBS) as a control, and incubated at 37° C. for 2 h. Goat anti-human IgG-HRP conjugated was added and incubated for 1 h at 37° C. Soluble one-component TMB substrate developer solution is added, and the developing was performed in dark at room temperature for 5-10 min. 2N H₂SO₄ 50 μL/well was added to terminate the color development reaction. The OD of the obtained solution was determined at 450 nm-650 nm on MD SpectraMax Plus 384 microplate reader and SoftMaxPro v5.4 was used for processing data, making graphs and analysis. […] It can be seen from FIG. 5 and FIG. 6 that all the above variants of anti-OX40 21 # mAb can bind to OX40 and the affinity of the in vitro affinity-matured anti-OX40 21 # VHnew-L80 mAb and anti-OX40 21#H96-L80 mAb increased approximately two times compared to anti-OX40 21# mAb.

hOX40-muFc [2] = target: T1, hOX40-muFc; experiment: as above; remark: listed apart in the source
Protocol: as §1

[3] = target: T2, hCD27-EGFP on HEK293 cells (human, UniProt P26842 20-260); experiment: flow cytometry on HEK293 cells expressing hCD27-EGFP, anti-hIg-PE
T2 construct: pcDNA4-hCD27-EGFP transfected into HEK293; not shown: EGFP, C5MKY7
T2 sequence (looked up): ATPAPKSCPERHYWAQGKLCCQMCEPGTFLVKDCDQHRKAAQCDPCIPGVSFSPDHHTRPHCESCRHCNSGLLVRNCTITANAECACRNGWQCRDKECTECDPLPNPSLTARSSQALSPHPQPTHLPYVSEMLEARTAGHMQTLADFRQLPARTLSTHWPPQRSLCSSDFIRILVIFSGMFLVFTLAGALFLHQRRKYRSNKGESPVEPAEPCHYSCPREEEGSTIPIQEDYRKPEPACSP
Protocol: (§2) HEK293 cells expressing hOX40-EGFP, hCD137-EGFP and hCD27-EGFP obtained in Embodiment 1 were resuspended in 0.5% PBS-BSA Buffer and anti-hOX40 mAb protein was added and the mixture was incubated on ice for 20 min. After washing, secondary antibody anti-hlg-PE (eBioscience) was added, and the mixture was incubated on ice for 20 min. After washing, the cells were resuspended in 500 μl 0.5% PBS-BSA Buffer and detected by flow cytometry.

hOX40-muFc [4] = target: T1, hOX40-muFc; experiment: SPR, BIAcore X100; antibody captured by anti-human Fc on CM5 chip, OX40-muFc as analyte, 1:1 model
Protocol: (§3) The binding kinetics of anti-hOX40 antibody to recombinant human OX40 was measured by surface plasmon resonance (SRP) method using a BIAcore X100 instrument. Anti-human Fc antibody (no cross-identification against the mouse Fc) was conjugated on CM5 chip, the test antibody was diluted to 5 nM with running buffer and captured as a ligand by the anti-human Fc antibody on the CM5 chip. […] The injection time is 180 s, the dissociation time is 1800 s and the regeneration time is 60 s. The running buffer is HBS-EP+, and the regeneration buffer is 10 mM glycine-HCl (pH 2.0). The association rate (kₒₙ) and dissociation rate (koff) were calculated using a simple one-to-one Languir binding model (BIAcore Evaluation Software version 3.2). The equilibrium dissociation constant (kD) is calculated as the ratio koff/kₒₙ. It can be seen from Table 3 that the affinity of the affinity-matured anti-OX40 21 # H96-L80 mAb is increased approximately two times.

hOX40-muFc [5] = target: T1, hOX40-muFc; experiment: ELISA, hOX40-muFc coated at 2 µg/ml, goat anti-human IgG-HRP; column C of the drawn 4-P fit table y=(A-D)/(1+(x/C)^B)+D; the axis prints no unit, ng/ml is from paragraph 210; remark: listed apart in the source
Protocol: as §1

[6] = target: T3, hCD137-EGFP on HEK293 cells (human, UniProt Q07011 24-255); experiment: flow cytometry on HEK293 cells expressing hCD137-EGFP, anti-hIg-PE
T3 construct: pcDNA4-hCD137-EGFP transfected into HEK293; not shown: EGFP, C5MKY7
T3 sequence (Q07011 24-255): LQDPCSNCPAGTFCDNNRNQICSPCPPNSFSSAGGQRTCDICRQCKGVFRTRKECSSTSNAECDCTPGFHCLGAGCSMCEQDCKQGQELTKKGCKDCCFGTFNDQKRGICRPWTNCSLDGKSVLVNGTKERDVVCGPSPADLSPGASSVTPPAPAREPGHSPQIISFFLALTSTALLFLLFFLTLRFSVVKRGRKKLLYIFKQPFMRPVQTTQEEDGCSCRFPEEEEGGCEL
Protocol: as §2

hOX40-muFc [7] = target: T1, hOX40-muFc; experiment: SPR, BIAcore X100; antibody captured by anti-human Fc on CM5 chip, OX40-muFc as analyte
Protocol: as §3

hOX40-muFc [8] = target: T1, hOX40-muFc; experiment: ELISA, hOX40-muFc coated at 2 µg/ml, goat anti-human IgG-HRP
Protocol: as §1

B1: O3 scFv (scFv)
scFv: QVQLQQWGAGLLKPSETLSLTCGFNGEYFTDYFWTWVRQPPGEALEWLALIYWDDDERYSPSLKNRLIITKDISKNQVVLTMTHMEPADTGTYYCARWGGSLMNAFDVWGPGTMVTVSSGGGGSGGGGSGGGGSQSALIQPASVSGSPGQSITISCTGTSSDVGGYNYVSWYQRHPGKAPRLMIYDVTKRPSGVSNRFSGSKSGNTASLTISGLQAEDEADYYCSSYTSSSIAVFGGGTQLTVL
notes: Purified as scFv fused with human IgG1-Fc, expressed in HEK293; also called anti-hOX40 scFv O3; not shown: human IgG1-Fc (hFc) domain, residues 104-330 of P01857
For B1, the EC50 (hOX40-muFc [1]) was 0.309 µg/mL.

B2: anti-OX40 21#H96 mAb (antibody, IgG4, V domains shown)
VH: QVQLQQSGPGLVKPSQTLSLTCAISGDSVSSNSVSWDWIRQSPSRGLEWLGRTYYRSKWYNEYAVSVESRITINPDTSKNQFSLQLNSVTPEDTAIYFCVRNDYFFDLWGRGTLVTVSS
VL: EIVLTQSPATLSLSPGERATLSCRASQSVSSYLAWYQQKPGQAPRLLIYDASDRATGIPARFSGSGSGTDFTLTISSLEPEDFAVYYCQLRSNWPPGYTFGQGTKVEIK
notes: Formatted as IgG according to Embodiment 3 (IgG4); also called H96 heavy chain mutant; not shown: human immunoglobulin gamma4 (IgG4) constant region, P01861; human immunoglobulin kappa light chain constant region, P01834
Binder B2 has an EC50 (hOX40-muFc [2]) of 0.046 µg/mL.

B3: anti-OX40 21#H28H33 mAb (antibody, IgG4, V domains shown)
VH: B2 VH with S28N, S33G, D103N
VL: B2 VL
notes: Formatted as IgG 'according to the method in Embodiment 3' (IgG4); not shown: human immunoglobulin gamma4 (IgG4) constant region, P01861; human immunoglobulin kappa light chain constant region, P01834
Work on B3 yielded an EC50 (hOX40-muFc [2]) of 0.0432 µg/mL.

B4: O21 mAb (antibody, IgG4, V domains shown)
VH: B2 VH with D103N
VL: B2 VL
notes: also called 021 mAb; anti-OX40 21# mAb; not shown: human immunoglobulin gamma4 (IgG4) constant region, P01861; human immunoglobulin kappa light chain constant region, P01834
B4 was tested, and the binding result [3] was “no binding”, the EC50 (hOX40-muFc [2]) was 0.0758 µg/mL and the EC50 (hOX40-muFc [1]) was 0.0139 µg/mL. It also gave a Kd (hOX40-muFc [4]) of 14.5 nM, a koff (hOX40-muFc [4]) of 0.000608 s⁻¹ and a kon (hOX40-muFc [4]) of 41800 M⁻¹ s⁻¹. The EC50 (hOX40-muFc [5]) was 0.0298 µg/mL and the binding result [6] was “no binding”.

B5: anti-OX40 21#H65 mAb (antibody, IgG4, V domains shown)
VH: B2 VH with S69N, D103N
VL: B2 VL
notes: Formatted as IgG according to Embodiment 3 (IgG4); not shown: human immunoglobulin gamma4 (IgG4) constant region, P01861; human immunoglobulin kappa light chain constant region, P01834
In the case of B5, the EC50 (hOX40-muFc [2]) is reported as 0.0609 µg/mL.

B6: anti-OX40 21#H96-L80 mAb (antibody, V domains shown)
VH: B2 VH
VL: B2 VL with S30G, D53N, L90Q
notes: Formatted as IgG according to Embodiment 3 (IgG4); also called H96-L80 IgG4; not shown: human immunoglobulin gamma4 (IgG4) constant region, P01861; human immunoglobulin kappa light chain constant region, P01834
In the case of B6, the “fold increase of affinity (reference not given; O21 mAb by Table 3)” value (hOX40-muFc [7]) is reported as ~2 times, the Kd (hOX40-muFc [4]) is reported as 7.9 nM and the koff (hOX40-muFc [4]) is reported as 0.000237 s⁻¹. For the same binder, the kon (hOX40-muFc [4]) was 30000 M⁻¹ s⁻¹, the EC50 (hOX40-muFc [5]) was 0.0154 µg/mL and the “fold increase of affinity compared to anti-OX40 21# mAb” value (hOX40-muFc [8]) was ~2 times.

B7: anti-OX40 21#VHnew-L80 mAb (antibody, IgG4, V domains shown)
VH: B2 VH with S33G, S69N
VL: B2 VL with S30G, D53N, L90Q
notes: as for B5
B7 gave a Kd (hOX40-muFc [4]) of 10.3 nM, a koff (hOX40-muFc [4]) of 0.000342 s⁻¹ and a kon (hOX40-muFc [4]) of 33300 M⁻¹ s⁻¹. For the same binder, the EC50 (hOX40-muFc [5]) was 0.0134 µg/mL and the “fold increase of affinity compared to anti-OX40 21# mAb” value (hOX40-muFc [8]) was ~2 times.

B8: O3 mAb (antibody, IgG4, V domains shown)
VH: QVQLQQWGAGLLKPSETLSLTCGFNGEYFTDYFWTWVRQPPGEALEWLALIYWDDDERYSPSLKNRLIITKDISKNQVVLTMTHMEPADTGTYYCARWGGSLMNAFDVWGPGTMVTVSS
VL: QSALIQPASVSGSPGQSITISCTGTSSDVGGYNYVSWYQRHPGKAPRLMIYDVTKRPSGVSNRFSGSKSGNTASLTISGLQAEDEADYYCSSYTSSSIAVFGGGTQLTVL
notes: IgG4, lambda; expressed in HEK293; also called 03 mAb; not shown: human immunoglobulin gamma4 (IgG4) constant region, P01861; human immunoglobulin lambda light chain constant region, A0M8Q6
B8 was tested, and the EC50 (hOX40-muFc [1]) was 0.0139 µg/mL, the Kd (hOX40-muFc [4]) was 1.38 nM and the koff (hOX40-muFc [4]) was 0.000391 s⁻¹. It also gave a kon (hOX40-muFc [4]) of 284000 M⁻¹ s⁻¹.

B9: O21 scFv (scFv)
scFv: QVQLQQSGPGLVKPSQTLSLTCAISGDSVSSNSVSWDWIRQSPSRGLEWLGRTYYRSKWYNEYAVSVESRITINPDTSKNQFSLQLNSVTPEDTAIYFCVRNNYFFDLWGRGTLVTVSSGGGGSGGGGSGGGGSEIVLTQSPATLSLSPGERATLSCRASQSVSSYLAWYQQKPGQAPRLLIYDASDRATGIPARFSGSGSGTDFTLTISSLEPEDFAVYYCQLRSNWPPGYTFGQGTKVEIK
notes: Purified as scFv fused with human IgG1-Fc; also called anti-OX40 21# scFv; not shown: human IgG1-Fc (hFc) domain, residues 104-330 of P01857
B9 showed an EC50 (hOX40-muFc [1]) of 0.00949 µg/mL.

B10: O19 mAb (antibody, IgG4, V domains shown)
VH: QVQLVESEGGLVQPGGSLRLSCAASRFTFSNYWMSWVRQAPGKGLEWVANIKQDGSEKYYMDSVKGRFTISRDNAKNSLFLQMNTLRAEDTAMYYCTRVSFGVPTYDDFWRSYATPAWYFDFWGRGTLVTVSS
VL: QSALIQPASVSGSPGQSITISCTGISSDDGYYKYVSWYQQYPGKAPKLMIYDVSKRPSGISFRFSGSKSGNTASLTISGLQAEDEADYYCSSYTSNMTPYVFGTGTKVTVL
notes: IgG4, lambda; expressed in HEK293; not shown: human immunoglobulin gamma4 (IgG4) constant region, P01861; human immunoglobulin lambda light chain constant region, A0M8Q6
B10: no binding [3]; no binding [6].
